Assay [1] addresses p97 (melanotransferrin) (UniProt P08582). In words: p97-coated plate, scFv-BLA culture broth, bound BLA activity (nitrocefin, 490 nm); ratio T1 (1 h dissociation)/T0 of mutant over parent; pH 6.5.
For assay [2] the target is unchanged. Nature of the assay: p97-coated plate, scFv-BLA culture broth, bound BLA activity (nitrocefin, 490 nm); ratio T1 (1 h dissociation)/T0 of mutant over parent; pH 7.4.

UniProt P08582, sequence (P08582 20-709 limits assumed): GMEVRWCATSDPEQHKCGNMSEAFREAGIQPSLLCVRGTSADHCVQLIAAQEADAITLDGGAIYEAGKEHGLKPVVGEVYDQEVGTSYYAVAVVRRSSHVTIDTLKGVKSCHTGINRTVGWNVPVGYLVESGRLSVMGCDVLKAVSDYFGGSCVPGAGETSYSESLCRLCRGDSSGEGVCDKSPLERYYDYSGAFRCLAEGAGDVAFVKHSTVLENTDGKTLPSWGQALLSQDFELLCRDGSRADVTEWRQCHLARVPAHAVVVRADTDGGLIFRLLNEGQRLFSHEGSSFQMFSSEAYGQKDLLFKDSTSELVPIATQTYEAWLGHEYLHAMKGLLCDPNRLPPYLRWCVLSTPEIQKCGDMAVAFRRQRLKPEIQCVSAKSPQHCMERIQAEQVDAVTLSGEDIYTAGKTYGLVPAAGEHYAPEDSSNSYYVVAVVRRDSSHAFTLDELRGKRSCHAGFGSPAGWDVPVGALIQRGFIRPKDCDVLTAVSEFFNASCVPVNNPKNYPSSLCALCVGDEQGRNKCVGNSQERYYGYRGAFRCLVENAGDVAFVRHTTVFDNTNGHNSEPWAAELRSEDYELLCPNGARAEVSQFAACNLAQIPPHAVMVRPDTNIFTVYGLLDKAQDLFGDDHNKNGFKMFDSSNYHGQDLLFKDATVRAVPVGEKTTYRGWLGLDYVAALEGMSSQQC

“ME56 (SGN-17 scFv-BLA, heavy chain W109 to His)”: the Index pH6.5 in assay [1] turned out to be 0.41. In assay [2], the Index pH7.4 came to 0.57.

On to “ME63 (SGN-17 scFv-BLA, light chain V98 to His)”, for which the Index pH7.4 in assay [2] amounted to 0.21.

With “ME59 (SGN-17 scFv-BLA, light chain Q94 to His)”, the Index pH7.4 in assay [2] worked out at 0.28.

As to “ME43 (SGN-17 scFv-BLA, heavy chain K64 to His)”, the Index pH6.5 in assay [1] stood at 0.65. Also, in assay [2], the Index pH7.4 came to 0.61.

With “ME66 (SGN-17 scFv-BLA, light chain T101 to His)”, in assay [1], the Index pH6.5 came to 1.73. In assay [2], the Index pH7.4 was found to be 1.36.

For “ME50 (SGN-17 scFv-BLA, heavy chain Y103 to His)”, the Index pH7.4 in assay [2] was 0.33.

Consider “ME64 (SGN-17 scFv-BLA, light chain P99 to His)”, for which the Index pH7.4 in assay [2] stood at 0.35.

For the substance “ME60 (SGN-17 scFv-BLA, light chain S95 to His)”, the Index pH6.5 in assay [1] amounted to 1.09. For the same substance, in assay [2], the Index pH7.4 was 1.04.

Take “ME48 (SGN-17 scFv-BLA, heavy chain A101 to His)”: the Index pH6.5 in assay [1] was found to be 0.33. In addition, the Index pH7.4 in assay [2] came out at 0.49.

“ME53 (SGN-17 scFv-BLA, heavy chain M106 to His)”: the Index pH6.5 in assay [1] was determined as 0.8. In addition, in assay [2], the Index pH7.4 came to 0.97.

On to “ME44 (SGN-17 scFv-BLA, heavy chain R97 to His)”, for which the Index pH7.4 in assay [2] turned out to be 0.24.

“ME47 (SGN-17 scFv-BLA, heavy chain L100 to His)”: the Index pH7.4 in assay [2] amounted to 0.24.

Turning to “ME54 (SGN-17 scFv-BLA, heavy chain D107 to His)”, in assay [1], the Index pH6.5 turned out to be 0.7. The Index pH7.4 in assay [2] stood at 0.41.

Consider “ME46 (SGN-17 scFv-BLA, heavy chain T99 to His)”, for which, in assay [1], the Index pH6.5 came out at 0.09. Moreover, the Index pH7.4 in assay [2] came to 0.38.

On to “ME58 (SGN-17 scFv-BLA, light chain R58 to His)”, for which the Index pH6.5 in assay [1] was determined as 0.76. Moreover, the Index pH7.4 in assay [2] is 0.92.

As to “ME51 (SGN-17 scFv-BLA, heavy chain Y104 to His)”, the Index pH7.4 in assay [2] came to 0.26.

In the case of “ME61 (SGN-17 scFv-BLA, light chain T96 to His)”, the Index pH6.5 in assay [1] was 0.81. For the same substance, in assay [2], the Index pH7.4 is 0.82.

Regarding “ME55 (SGN-17 scFv-BLA, heavy chain Y108 to His)”, the Index pH6.5 in assay [1] is 0.7. For the same substance, in assay [2], the Index pH7.4 came out at 0.8.

The record behind these values is patent EP2107116A2.
